Results on one molecule are retold here after patent US9879094B2, “Nucleic acid molecules encoding for BACE1 antibodies” (Genentech, Inc., priority 2010, dated 2018).

A short description of data set [1]: Antibody concentration in brain of hAPP transgenic mice. It is filed as in vivo, mouse. The procedure: Briefly, 5-month old human APP-expressing mice were treated with 30 mg/kg or 100 mg/kg YW412.8.31 antibody or vehicle by intra-peritoneal injection every four days for a total of three doses (i.e., at days 1, 5, and 9). Animals were euthanized two hours post the final dose. Serum, plasma, and brains were harvested and processed. Plasma, cortex and hippocampus were analyzed for levels of soluble Aβ1-40 and Aβ1-42 using an Amyloid beta (Aβ) ELISA test kit per manufacture's instructions (The Genetics Company). Pharmacokinetic analysis was performed on serum and brain homogenates.
Similar experiments were also performed in which YW412.8.31 anti-BACE1 antibody was delivered systemically or directly into hAPP transgenic mice brains by continuous ICV infusion. For ICV delivery, antibody was delivered continuously for 7 days via an Alzet osmotic minipump (model 2001) implanted unilaterally. The amount of YW412.8.31 antibody delivered was 0.041 mg/day (low dose) or 0.41 mg/day (high dose); 0.33 mg/day Control IgG was delivered to the control group. At euthanasia, plasma, cortex, and hippocampus were harvested and analyzed for levels of soluble Aβ1-40 and Aβ1-42 by ELISA (The Genetics Company) following manufacturer's instructions.
(§1) Total anti-BACE1 antibody concentrations in mouse serum and brain samples were measured as follows. Antibody concentrations in mouse serum and brain samples were measured using an enzyme-linked immunosorbent assay (ELISA). NUNC 384 well Maxisorp immunoplates (Neptune, N.J.) were coated with F(ab′)2 fragment of donkey anti-human IgG, Fc fragment specific polyclonal antibody (Jackson ImmunoResearch, West Grove, Pa.) overnight at 4° C. Plates were blocked with phosphate-buffered saline (PBS) containing 0.5% bovine serum albumin (BSA) for 1 hour at room temperature the next day. Each antibody (Control IgG and anti-BACE1) was used as a standard to quantify the respective antibody concentrations. After washing plates with PBS containing 0.05% Tween 20 using a microplate washer (Bio-Tek Instruments, Inc., Winooski, Vt.), standards and samples diluted in PBS containing 0.5% BSA, 0.35 M NaCl, 0.25% CHAPS, 5 mM EDTA, 0.05% Tween 20 and 15 ppm Proclin were incubated on plates for 2 hours at room temperature with mild agitation. Bound antibody was detected with horseradish peroxidase conjugated F(ab′)2 goat anti-human IgG, Fc specific polyclonal antibody (Jackson ImmunoResearch). Finally, plates were developed using the substrate 3,3′,5,5′-tetramethyl benzidine (TMB) (KPL, Inc., Gaithersburg, Md.). Absorbance was measured at a wavelength of 450 nm with a reference of 630 nm on a Multiskan Ascent reader (Thermo Scientific, Hudson, N.H.). Concentrations were determined from the standard curve using a four-parameter non-linear regression program.

Data set [2] in a line: Antibody concentration in monkey serum and CSF. Type of data set: in vivo, Cynomolgus monkey. To be noted: 30 mg/kg IV. The procedure:
Cynomolgus monkeys were dosed with control IgG or YW412.8.31 anti-BACE1 antibody (30 mg/kg) by IV delivery. Plasma and CSF were sampled up to 7 days prior to dosing to set mean baseline Aβ1-40 levels in each in individual animal, and then at various times after dosing. Total anti-BACE1 or control antibody concentrations in monkey serum and CSF samples were measured using monkey-adsorbed goat anti-human IgG polyclonal antibody (Bethyl, Montgomery, Tex.) as both coat and detection (FIG. 20). Free anti-BACE1 antibody concentrations in monkeys were determined using BACE1 ECD as coat and the monkey-adsorbed goat anti-human IgG antibody (Bethyl) for detection.

A further data set deals with Aβ1-40 in wild-type mice. The data set is described as follows: Wild-type mice, single IV dose, Aβ1-40 levels. Type of data set: in vivo, mouse. To be noted: 50 mg/kg single IV. The procedure: The ability of anti-BACE1 antibodies YW412.8.31 to modulate amyloidogenic processing was also assessed in wild-type mice. Briefly, experiments were performed as described above. A single dose of control IgG antibody or YW412.8.31 anti-BACE1 antibody (50 mg/kg) was delivered systemically by intravenous (IV) injection to wild-type mice. After 24 or 48 hours, plasma and brain samples were harvested and Aβ1-40 levels were analyzed. The concentrations of total mouse Aβ1-40 in plasma and brain were determined using a sandwich ELISA following similar procedures described below for measuring total anti-BACE1 antibody concentrations. Briefly, rabbit polyclonal antibody specific for the C terminus of Aβ1-40 (Millipore, Bedford, Mass.) was coated onto plates, and biotinylated anti-mouse Aβ monoclonal antibody M3.2 (Covance, Dedham, Mass.) was used for detection. The assay had lower limit of quantification values of 1.96 pg/ml in plasma and 39.1 pg/g in brain. As is shown in FIG. 16, panel B, Plasma Aβ1-40 was reduced by 35% and cortical Aβ1-40 was reduced by 20%.

The nature of data set [3]: Antibody concentration in serum and brain of wild-type mice. It is filed as in vivo, mouse. The method, then:
as §1

Another data set has as its target T1, Cathepsin D (Homo sapiens, UniProt P07339).
T1 construct: the extracellular domain of Cathepsin D (6 nM, Calbiochem®); purchased Calbiochem
The data set is described as follows: MCE assay, cathepsin D. Type of data set: biochemical. The method, then: The MCE assay reactions were carried out in a final volume of 20 μL per well in a 384-well microplate. A standard enzymatic reaction, initiated by the addition of 10 μL 2× substrate to 5 μL of 4× enzyme and […] of 4× compound, containing 12 nM human BACE1 extracellular domain, […] amyloid precursor protein beta secretase active site peptide (FAM-[…]-CONH2 (SEQ ID NO:55)), 50 mM NaOAc pH 4.4 and 0.1% CHAPS. The same reaction conditions were used for the extracellular domain of human BACE2 enzyme (5 nM) and the extracellular domain of Cathepsin D (6 nM, Calbiochem®). After incubation for 60 minutes at ambient temperature, the product and substrate in each reaction were separated using a 12-sipper microfluidic chip analyzed on an LC3000® (both, Caliper Life Sciences). The separation of product and substrate was optimized by choosing voltages and pressure using the manufacturer's optimization software. The separate buffer contained 100 mM HEPES pH 7.2, 0.015% Brij-35, 0.1% coating reagent #3, 10 mM EDTA and 5% DMSO. The separation conditions used a downstream voltage of −500V, an upstream voltage of −2250V and a screening pressure of −1.2 psi. The product and substrate fluorescence was excited at a wavelength of 488 nm and detected at a wavelength of 530 nm. Substrate conversion was calculated from the electropherogram using HTS Well Analyzer software (Caliper Life Sciences).

[4] abbreviates: 30 mg/kg IP every 4 days, 3 doses.
Where [5] appears, read: 100 mg/kg IP every 4 days, 3 doses.

Where “and” joins values, the source holds several entries; their conditions need not be identical. Equal values may be shown once.

T1 sequence (P07339 65-412, species assumed): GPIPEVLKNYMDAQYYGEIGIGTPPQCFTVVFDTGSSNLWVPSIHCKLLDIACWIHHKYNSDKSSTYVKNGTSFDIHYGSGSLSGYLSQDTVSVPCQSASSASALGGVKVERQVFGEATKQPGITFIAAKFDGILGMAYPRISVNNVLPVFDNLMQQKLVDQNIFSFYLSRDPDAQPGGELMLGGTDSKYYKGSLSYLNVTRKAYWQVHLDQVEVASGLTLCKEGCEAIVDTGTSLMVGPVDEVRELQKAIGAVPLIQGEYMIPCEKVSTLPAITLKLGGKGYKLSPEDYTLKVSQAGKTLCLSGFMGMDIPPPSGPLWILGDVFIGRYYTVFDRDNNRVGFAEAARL

B1: YW412.8.31: affinity matured form of YW412.8 anti-BACE1 antibody (antibody, V domains shown)
VH: EVQLVESGGGLVQPGGSLRLSCAASGFTFLGYGIHWVRQAPGKGLEWVGWISPAGGSTDYADSVKGRFTISADTSKNTAYLQMNSLRAEDTAVYYCARGPFSPWVMDYWGQGTLVTVSS
VL: DIQMTQSPSSLSASVGDRVTITCRASQDVSTAVAWYQQKPGKAPKLLIYSASFLYSGVPSRFSGSGSGTDFTLTISSLQPEDFATYYCQQFPTYLPTFGQGTKVEIK
For B1, in data set [1] (systemic delivery 30 mg/kg), the “ANTIBODY CONCENTRATION IN BRAIN” value is 0.7 μG/G; the “antibody concentration in brain” value is 4.8 ± 3.6 nM and 4.8 nM. Further, in data set [1] (systemic delivery 100 mg/kg), the “ANTIBODY CONCENTRATION IN BRAIN” value is reported as 2.1 μG/G; the “antibody concentration in brain” value was 14.0 ± 9.3 nM and 14 nM. Further, the “concentration in CSF” value in data set [2] was 0.2-0.3 μg/ml and ~2 nM. The “peak serum antibody concentration” value in data set [2] (15 minutes post administration) is about 800 µg/mL. The molecule also showed a serum antibody concentration in data set [2] (7 days post-dose) of 232 µg/mL. Further, the “reduction of cortical Aβ1-40” value in the data set with Aβ1-40 in wild-type mice (24 or 48 hours) is recorded as 20%. Moreover, in the data set with Aβ1-40 in wild-type mice (at 24 hr), the “reduction of plasma Aβ1-40” value is 35%. In data set [3] (setting [4]), the concentration in brain was 0.9±0.6 μg/g and 5.9±4.3 nM; the concentration in serum was determined as 480 ± 210 µg/mL. In data set [3] (setting [5]), the concentration in brain was 3.0±1.6 μg/g and 20±10 nM; the concentration in serum was determined as 1500 ± 440 µg/mL. In data set [3] (100 mg/kg single IP, 4 hours), the “brain concentration as share of concentration in serum” value is given as about 0.07%; the concentration in brain was 0.7±0.4 μg/g and 4.7±2.7 nM; the concentration in serum was 1040±140 μg/mL and 6.9±0.9 μM. Also, the “inhibition of cathepsin D” value with Cathepsin D is listed as “did not inhibit”.
